Where “and” joins values, the source holds several entries; their conditions need not be identical. Equal entries are not always repeated.
Biological target: the molecule itself
Test: SEC; Superdex 200 prep grade, purified protein 5 mg/mL in Buffer C (20 mM MES, 100 mM NaCl, pH 5.9), 0.5 mL/min; masses estimated against standard proteins; dimers and tetramers coexist

B1: Pseudomonas aeruginosa PAO1 dihydropyrimidinase (enzyme)
chain: MSLLIRGATVVTHEESYRADVLCANGLIQAIGENLETPSGCDVLDGGGQYLMPGGIDPHTHMQLPFMGTVASEDFFSGTAAGLAGGTTSIIDFVIPNPRQSLLEAFHTWRGWAQKSAADYGFHVAITWWSDEVAREMGELVAQHGVNSFKHFMAYKNAIMAADDTLVASFERCLELGAVPTVHAENGELVFHLQQKLLAQGLTGPEAHPLSRPPQVEGEAASRAIRIAETLGTPLYLVHISSREALDEIAYARAKGQPVYGEVLAGHLLLDDSVYRHPDWATAAGYVMSPPFRPVEHQEALWRGLQSGNLHTTATDHCCFCAEQKAMGRDDFSKIPNGTAGIEDRMALLWDAGVNSGRLSMHEFVALTSTNTAKIFNLFPRKGAIRVGADADLVLWDPQGSRTLSAATHHQRVDFNIFEGRTVRGIPSHTISQGKLLWAAGDLRAEPGAGRYVERPAYPSVYEVLGRRAERQRPVAVER
modifications: carboxylated lysine in the active site (position not given)
notes: dihydropyrimidinase of Pseudomonas aeruginosa PAO1; two zinc ions per monomer in the active site; also called P. aeruginosa dihydropyrimidinase; pseudomonal dihydropyrimidinase
- stoichiometry N: 2 and 4
